Assay results published in patent US20250186597A1, “TARGETED IMMUNE ACTIVATION WITH IL-18 IMMUNOCYTOKINES” (BRIGHT PEAK THERAPEUTICS AG, priority 2023, published 2025).
Numbering of substitutions follows the chain as printed. Names may count otherwise. Blank lines part the entries; values can stand above or below the molecule they belong to.

Tests used:
NK-92 cells [1] = assay: IFNγ induction cellular assay in NK-92 cells (Example 4, used in Example 22C); format: cell-based, human; conditions: IFNg stimulation in NK92 cells
Description: The ability of immunocytokines and IL-18 polypeptides provided herein are assessed for ability to induce IFN[…] in a cellular assay according to the protocol below.
The NK cell line NK-92 derived from a patient with lymphoma (ATCC® CRL-2407™) is cultured in aMEM medium supplemented with 20% FCS, Glutamax, 25 µM B-mercaptoethanol, and 100 IU/mL of recombinant human IL-2.
On the day of experiment, cells are harvested and washed with aMEM medium without IL-2 and containing 1 ng/mL of recombinant human IL-12. After counting, cells are seeded at 100,000 cells/well in a 384 well titer plate and incubated at 37° C./5% CO2. Sixteen 4-fold serial dilutions of IL-18 analytes are prepared in aMEM medium, and 1 ng/mL of IL-12 were added to the NK-92 cells. Final IL-18 analyte concentrations range from 56 nM to 5×10^−5 pM.
After incubating the cells for 16-20 hr at 37° C./5% CO2, 5 μL of supernatant is carefully transferred to a 384 microwell OptiPlate. IFNγ levels are measured using a human IFNγ AlphaLISA Assay Kit. Briefly, 10 μL of 2.5× AlphaLISA Anti-IFNγ acceptor beads and biotinylated antibody anti-IFNγ mix are added to the 5 μL of NK-92 supernatants. The mixtures are incubated for 1 hr at room temperature with shaking. Under subdued light, 2.5 μL of 2× streptavidin (SA) donor beads are pipetted into each well, and the wells are incubated for 30 min at room temperature with shaking. AlphaLISA signals are then measured on an EnSpire™ plate reader using 680 nm and 615 nm as excitation and emission wavelengths, respectively. Half maximal effective concentrations (EC50) are calculated based on a variable slope and four parameter analysis using GraphPad PRISM software.
(§1) The experiments described in Example 4 for determination of IFNg stimulation in NK92 cells (and inhibition by IL-18 BP) were performed substantially as described on IL-18 polypeptides in order to assess their activities and their suitability for incorporation into immunocytokine compositions. It is expected that the IL-18 polypeptides provided below would behave analagously to C086 (SEQ ID NO: 30) when incorporated into an immunocytokine composition as those otherwise provided herein.

human IL-18BP = target: T1, human IL-18BP (Homo sapiens, UniProt O95998); assay: IL-18BP binding alphaLISA assay (Example 4, used in Example 22B); conditions: IL-18BP AlphaLISA
T1 construct: His
T1 sequence (O95998 31-194): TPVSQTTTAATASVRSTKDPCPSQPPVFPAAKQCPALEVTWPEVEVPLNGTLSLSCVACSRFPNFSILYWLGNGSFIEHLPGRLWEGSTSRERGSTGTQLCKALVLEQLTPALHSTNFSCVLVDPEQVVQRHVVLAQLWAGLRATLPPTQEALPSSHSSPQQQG
Description: A human IL-18BP AlphaLISA Assay Kit is used to determine the binding affinity of each immunocytokine and IL-18 variant for IL-18BP, which detected the presence of free form IL-18BP.
Sixteen three-fold serial dilutions of IL-18 analytes are prepared in aMEM medium supplemented with 20% FCS, Glutamax, and 25 µM β-mercaptoethanol in the presence of 5 ng/mL of His-tagged human IL-18BP. Final IL-18 analytes concentration range from 2778 nM to […].
After 1 hr incubation at room temperature, free IL-18BP levels are measured using a […]. In a 384 well OPTIplate, 5 μL of 5× Anti-IL-18BP acceptor beads are added to 7.5 μL of an IL-18/IL-18BP mix. After 30 min incubation at room temperature with shaking, 5 μL of biotinylated Anti-IL-18BP antibodies are added to each well. The plate is incubated further for 1 hr at room temperature. Under subdued light, 12.5 μL of 2× streptavidin (SA) donor beads are pipetted into each well, and the wells are incubated with shaking for an additional 30 min at room temperature. The AlphaLisa signal is then measured on an Enspire plate reader with 680 and 615 nm as excitation and emission wavelengths, respectively. The dissociation constant (KD) is calculated based on a variable slope, four parameter analysis using GraphPad PRISM software.
An IL-18 binding protein AiphaLISA experiment substantially as described in Example 4 was performed on IL-18 polypeptide which can be incorporated into immunocytokine compositions as provided herein to assess ability to bind to IL-181BP. It is expected that the IL-18 polypeptides provided below would behave analogously to C086 (SEQ ID NO: 30) when incorporated into an immunocytokine composition as those otherwise provided herein.

NK-92 cells [2] = assay: IL-18 binding protein inhibition cellular assay in NK-92 cells (Example 4, used in Example 22C); format: cell-based, human; conditions: inhibition by IL-18BP of IFNg stimulation in NK92 cells
Description: The NK cell line NK-92 derived from a patient with lymphoma (ATCC® CRL-2407™) is cultured in aMEM medium supplemented with 20% FCS-Glutamax, 25 µM B-mercaptoethanol, and 100 IU/mL of recombinant human IL-2.
On the day of experiment, cells are harvested and washed with aMEM medium without IL-2 and containing 1 ng/mL of recombinant human IL-12. After counting, the cells are seeded at 100,000 cells/well in a 384 well titer plate and incubated at 37° C./5% CO2. Sixteen 2-fold serial dilutions of Fc-fused human IL-18 binding protein isoform a (IL-18BPa) are prepared in aMEM medium. 1 ng/mL of IL-12 containing 2 nM of each IL-18 polypeptide variant is added to the NK-92 cells. The final IL-18 analyte concentration is 1 nM, and the final IL-18BPa concentration ranged from 566 nM to […].
After incubating the cells for 16-20 hr at 37° C./5% CO2, 5 μL of the supernatant is carefully transferred to a 384 microwell OptiPlate. IFNγ levels are measured using a human IFNγ AlphaLISA Assay Kit. Briefly, 10 μL of 2.5× AlphaLISA anti-IFNγ acceptor beads and biotinylated antibody anti-IFNγ mix are added to 5 μL of NK-92 supernatants. The mixtures are incubated for 1 hr at room temperature with shaking. Under subdued light, 2.5 μL of 2×SA donor beads are pipetted in each well and incubated for 30 min at room temperature with shaking. AlphaLISA signals are then measured on an EnSpire™ plate reader using 680 nm and 615 nm as excitation and emission wavelengths, respectively. Half maximal inhibitory concentrations (IC50) are calculated based on a variable slope and four parameter analysis using GraphPad PRISM software.
as §1

EC50 (NK-92 cells [1]): 0.144 nM
Kd (human IL-18BP): 822 nM
IC50 (NK-92 cells [2]): 1060 nM
B1: 42 (protein)
chain: YFGKLKSKLSVIRNLNDQVLFIDQGNRPLFEDMTDSDCRDNAPRTIFIISMYADAQPRGMAVAISVKCEKISTLSCENKIISFKEMNPPDNIKDTKSDIIFFQRSVPGHDNKMQFESSSYEGYFLACEKERDLFKLILKKEDELGDRSIMFTVQNED

EC50 (NK-92 cells [1]): 0.087 nM
Kd (human IL-18BP): 9.74 nM
IC50 (NK-92 cells [2]): 10.2 nM
B2: C145: IL-18 polypeptide: V11I, C38A, K53A, S55A, C76A, C127A (protein)
chain: B1 chain with K6E, V11I, C38A, A63T, C76A, C127A

EC50 (NK-92 cells [1]): 0.488 nM
Kd (human IL-18BP): 0.21 nM
IC50 (NK-92 cells [2]): 0.114 nM
B3: 48 (protein)
chain: B1 chain with K6E, C38S, A53K, A55S, A63T, C68S, K70C, C76S, C127S

EC50 (NK-92 cells [1]): 0.015 nM
Kd (human IL-18BP): 1.24 nM
IC50 (NK-92 cells [2]): 21.3 nM
B4: C150: IL-18 polypeptide: V11I, T34A, C38A, K53A, C76A, C127A (protein)
chain: B1 chain with K6E, V11I, T34A, C38A, A55S, A63T, C76A, C127A

EC50 (NK-92 cells [1]): 0.175 nM
Kd (human IL-18BP): 4.55 nM
IC50 (NK-92 cells [2]): 2.22 nM
B5: C153: IL-18 polypeptide: V11I, D37A, C38A, K53A, C76A, C127A (protein)
chain: B1 chain with K6E, V11I, D37A, C38A, A55S, A63T, C76A, C127A

EC50 (NK-92 cells [1]): 0.187 nM
Kd (human IL-18BP): 0.64 nM
IC50 (NK-92 cells [2]): 1.17 nM
B6: C149: IL-18 polypeptide: V11I, E31A, C38A, K53A, C76A, C127A (protein)
chain: B1 chain with K6E, V11I, E31A, C38A, A55S, A63T, C76A, C127A

EC50 (NK-92 cells [1]): 0.037 nM
Kd (human IL-18BP): 373 nM
IC50 (NK-92 cells [2]): 733 nM
B7: SEQ ID NO: 68: IL-18 polypeptide: V11I, C38A, M51G, K53A, C76A, C127A (protein)
chain: B1 chain with K6E, V11I, C38A, M51G, A55S, A63T, C76A, C127A

EC50 (NK-92 cells [1]): 0.0268 nM
Kd (human IL-18BP): 340 nM
IC50 (NK-92 cells [2]): > 1000 nM
B8: 50 (protein)
chain: B1 chain with A55S

EC50 (NK-92 cells [1]): 17.2 nM
Kd (human IL-18BP): 913 nM
IC50 (NK-92 cells [2]): > 1000 nM
B9: 55 (protein)
chain: B1 chain with K6E, C38S, A55S, C68S, K70C, C76S, C127S

EC50 (NK-92 cells [1]): 0.062 nM
Kd (human IL-18BP): 2.12 nM
IC50 (NK-92 cells [2]): 3.71 nM
B10: C154: IL-18 polypeptide: V11I, E31A, D37A, C38A, K53A, C76A, C127A (protein)
chain: B1 chain with K6E, V11I, E31A, D37A, C38A, A55S, A63T, C76A, C127A

EC50 (NK-92 cells [1]): 0.012 nM
Kd (human IL-18BP): 0.66 nM
IC50 (NK-92 cells [2]): 7.52 nM
B11: C144: IL-18 polypeptide: V11I, C38A, K53A, T63A, C76A, C127A (protein)
chain: B1 chain with K6E, V11I, C38A, A55S, C76A, C127A

EC50 (NK-92 cells [1]): 0.256 nM
Kd (human IL-18BP): 57.2 nM
IC50 (NK-92 cells [2]): 5.05 nM
B12: C148: IL-18 polypeptide: F2A, V11I, C38A, K53A, C76A, C127A (protein)
chain: B1 chain with F2A, K6E, V11I, C38A, A55S, A63T, C76A, C127A

EC50 (NK-92 cells [1]): 0.067 nM
Kd (human IL-18BP): 0.74 nM
IC50 (NK-92 cells [2]): 3.23 nM
B13: C155: IL-18 polypeptide: V11I, C38A, D40A, K53A, C76A, C127A (protein)
chain: B1 chain with K6E, V11I, C38A, D40A, A55S, A63T, C76A, C127A

EC50 (NK-92 cells [1]): 0.115 nM
Kd (human IL-18BP): 0.03 nM
IC50 (NK-92 cells [2]): 0.444 nM
B14: 47 (protein)
chain: B1 chain with K6E, C38S, A53K, A55S, A63T, C68S, C76S, C127S

EC50 (NK-92 cells [1]): 0.061 nM
Kd (human IL-18BP): 2.88 nM
IC50 (NK-92 cells [2]): 3.62 nM
B15: C151: IL-18 polypeptide: V11I, D35A, C38A, K53A, C76A, C127A (protein)
chain: B1 chain with K6E, V11I, D35A, C38A, A55S, A63T, C76A, C127A

EC50 (NK-92 cells [1]): 0.079 nM
Kd (human IL-18BP): 25.8 nM
IC50 (NK-92 cells [2]): 47.6 nM
B16: C147: IL-18 polypeptide: V11I, C38A, K53A, D54A, C76A, C127A (protein)
chain: B1 chain with K6E, V11I, C38A, D54A, A55S, A63T, C76A, C127A

EC50 (NK-92 cells [1]): 7.4 nM
Kd (human IL-18BP): > 1000 nM
IC50 (NK-92 cells [2]): 0.189 nM
B17: 46 (protein)
chain: B1 chain with M51G, A63T

EC50 (NK-92 cells [1]): 0.138 nM
Kd (human IL-18BP): 8.86 nM
IC50 (NK-92 cells [2]): 1.62 nM
B18: C143: IL-18 polypeptide: V11I, C38A, K53A, C76A, C127A (protein)
chain: B1 chain with K6E, V11I, C38A, A55S, A63T, C76A, C127A

EC50 (NK-92 cells [1]): 0.045 nM
Kd (human IL-18BP): 50.2 nM
IC50 (NK-92 cells [2]): 146 nM
B19: 57 (protein)
chain: B1 chain with C38S, A55S, A63T

EC50 (NK-92 cells [1]): 0.033 nM
Kd (human IL-18BP): 1.12 nM
IC50 (NK-92 cells [2]): 7.85 nM
B20: C152: IL-18 polypeptide: V11I, S36A, C38A, K53A, C76A, C127A (protein)
chain: B1 chain with K6E, V11I, S36A, C38A, A55S, A63T, C76A, C127A

EC50 (NK-92 cells [1]): 0.962 nM
Kd (human IL-18BP): 446 nM
IC50 (NK-92 cells [2]): 23.5 nM
B21: 54 (protein)
chain: B1 chain with C38S, A55S, A63T, C68S, K70C, C76S, C127S
